Results: IntAct's records for PubMed 24613396

B1: F-box only protein 11 (Homo sapiens), Q86XK2 (parent)
chain: MNSVRAANRRPRRVSRPRPVQQQQQQPPQQPPPQPPQQQPPQQQPPPPPQQQQQQQPPPPPPPPPPLPQERNNVGERDDDVPADMVAEESGPGAQNSPYQLRRKTLLPKRTACPTKNSMEGASTSTTENFGHRAKRARVSGKSQDLSAAPAEQYLQEKLPDEVVLKIFSYLLEQDLCRAACVCKRFSELANDPILWKRLYMEVFEYTRPMMHPEPGKFYQINPEEYEHPNPWKESFQQLYKGAHVKPGFAEHFYSNPARYKGRENMLYYDTIEDALGGVQEAHFDGLIFVHSGIYTDEWIYIESPITMIGAAPGKVADKVIIENTRDSTFVFMEGSEDAYVGYMTIRFNPDDKSAQHHNAHHCLEITVNCSPIIDHCIIRSTCTVGSAVCVSGQGACPTIKHCNISDCENVGLYITDHAQGIYEDNEISNNALAGIWVKNHGNPIIRRNHIHHGRDVGVFTFDHGMGYFESCNIHRNRIAGFEVKAYANPTVVRCEIHHGQTGGIYVHEKGRGQFIENKIYANNFAGVWITSNSDPTIRGNSIFNGNQGGVYIFGDGRGLIEGNDIYGNALAGIQIRTNSCPIVRHNKIHDGQHGGIYVHEKGQGVIEENEVYSNTLAGVWVTTGSTPVLRRNRIHSGKQVGVYFYDNGHGVLEDNDIYNHMYSGVQIRTGSNPKIRRNKIWGGQNGGILVYNSGLGCIEDNEIFDNAMAGVWIKTDSNPTLRRNKIHDGRDGGICIFNGGRGLLEENDIFRNAQAGVLISTNSHPILRKNRIFDGFAAGIEITNHATATLEGNQIFNNRFGGLFLASGVNVTMKDNKIMNNQDAIEKAVSRGQCLYKISSYTSYPMHDFYRCHTCNTTDRNAICVNCIKKCHQGHDVEFIRHDRFFCDCGAGTLSNPCTLAGEPTHDTDTLYDSAPPIESNTLQHN

Variants of: B1
Conditions: with prdm1_human PRDM1, O75626
Chain of prdm1_human PRDM1, O75626 (O75626 whole entry): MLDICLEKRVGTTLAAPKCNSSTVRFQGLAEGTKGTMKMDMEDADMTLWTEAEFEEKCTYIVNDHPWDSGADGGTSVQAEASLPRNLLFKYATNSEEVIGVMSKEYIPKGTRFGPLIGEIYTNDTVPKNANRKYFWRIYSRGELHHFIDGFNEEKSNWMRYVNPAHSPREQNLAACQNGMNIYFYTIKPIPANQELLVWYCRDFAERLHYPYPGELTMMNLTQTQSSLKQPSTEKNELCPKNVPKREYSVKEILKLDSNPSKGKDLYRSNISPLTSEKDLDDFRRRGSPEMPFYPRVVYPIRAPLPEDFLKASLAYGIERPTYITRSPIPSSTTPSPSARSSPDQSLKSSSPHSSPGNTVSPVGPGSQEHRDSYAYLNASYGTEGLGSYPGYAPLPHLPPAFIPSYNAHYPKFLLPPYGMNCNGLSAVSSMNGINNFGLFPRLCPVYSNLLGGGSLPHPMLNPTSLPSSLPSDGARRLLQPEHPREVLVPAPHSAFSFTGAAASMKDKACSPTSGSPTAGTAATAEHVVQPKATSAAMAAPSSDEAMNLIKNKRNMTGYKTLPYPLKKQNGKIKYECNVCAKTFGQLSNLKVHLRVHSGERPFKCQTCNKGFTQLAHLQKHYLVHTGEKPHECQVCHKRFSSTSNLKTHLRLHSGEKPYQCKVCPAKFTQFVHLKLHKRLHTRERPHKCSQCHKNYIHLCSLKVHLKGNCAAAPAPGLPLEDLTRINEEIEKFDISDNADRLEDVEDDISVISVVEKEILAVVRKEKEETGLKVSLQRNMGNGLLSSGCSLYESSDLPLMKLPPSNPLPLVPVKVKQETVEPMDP

effect of a mutation on the interaction | Variant
disrupting interaction strength | Q575L
